One experiment concerns FGF23 and FGFR1c. Kind of experiment: sKL detection assay (FGF23 coated, Fc-FGFR1c detection). The format is binding. The settings on record: lysates of stably transfected HEK293T cells. The protocol:
Commercially available ELISA plates (Maxisorp) are coated with 5 μg/ml of recombinant FGF23 protein (R&D Systems) and unspecific binding sites are blocked with BSA/Tween20. Wells are incubated with sKL in solution (which can be plasma, serum or cell culture supernatants) for one hour, washed and incubated for one hour with 750 ng/ml of recombinant FGFR1α(IIIc)-Fc (R&D Systems), which is a chimeric protein consisting of the FGFR1 ectodomain and the Fc region of a human IgG. FGFR1 only binds to FGF23 in the presence of sKL, and the formation of this trimeric sandwich complex is then measured by detecting the presence of the Fc domain that is coupled to FGFR1. To do so, wells are washed and incubated with 400 ng/ml of anti-human IgG conjugated to horseradish peroxidase (HRP; Promega). Wells are washed and incubated with HRP substrate. After development for about 30 minutes, reactions are analyzed on a standard plate reader via absorptions at […]. Incubations with recombinant sKL dissolved in PBS at defined concentrations serve as standards that are used as reference values to determine sKL concentrations in the studied human samples. […]
HEK293 cells were plated in 10 cm dishes supplemented with 10% FBS (26140079, Gibco) and I× Pen/Strep (15140122, Gibco). Cells were transfected with appropriate klotho or green fluorescent protein cDNA constructs. After 2 days, clones were selected by using 1 μg/ml of puromycin (A1113803, Gibco). Cells were then split and plated in 10 cm dishes in DMEM supplemented with FBS and puromycin. After 48 hours, cells were lysed in 1 ml of RIPA buffer with the addition of a protease inhibitor (11873580001, Roche) for 30 minutes. The mixture was then centrifuged at 20,000 g for 1 hour to remove all cell debris. Activity assay was run as above in the sKL halflife study. Instead of serum, 20 μl of the indicated cell lysate was used and combined with 80 μl of activity assay buffer.

The test system of experiment [1] is phosphorylated ERK in HEK293T cells. Kind of experiment: ERK phosphorylation in serum-starved HEK293 cells (Western blotting). The settings on record: FGF 1.1 nM for 10 minutes, absence of sKL. The format is cell-based, human. The protocol:
The sample (20 μl) was loaded onto Mini-PROTEAN TGX Precast Gel 4-20% for experiments with <9 samples (4568094, Bio-Rad) or Criterion TGX Precast Gel 4-20% (5678094, Bio-Rad) for experiments with >9 samples. Gels were run in 1× Tris/Glycine/SDS buffer (1610732, Bio-Rad) at 150 V and stopped when the sample dye reached the end of the gel. Gels were removed and electrotransferred via a semi-dry cassette (1703940, Bio-Rad) in I× Tris/Glycine buffer (1610734, Bio-Rad) with 20% methanol. Gels were transferred onto polyvinylidene diflouride membranes (IPVH00010, Millipore) at 20 V for 1 hour. Membranes were then blocked in 5% dried milk with 0.5% Tween 20 diluted in Tris-buffered saline (TBST; pH 7.5) for 1 hour and probed with antibodies against specific antigens at 1:1000 in TBST with 5% dried milk. Blots were washed 3× for 5 minutes in TBST and probed with HRP-coupled secondary antibodies against specific species at 1:10,000 in TBST with 5% dried milk. Membranes were imaged on the SRX-101A X-ray film developer (Konica Minolta).
To determine the cellular activity of paracrine FGFs, the activation/phosphorylation of ERK in HEK293 cells after treatment was studied. HEK293 cells were seeded in 6-well plates in DMEM (26140079, Gibco) supplemented with I× Pen/Strep (15140122, Gibco) and 10% FBS (26140079, Gibco) and grown for 48 hours. Upon reaching 80% confluence, cells were serum starved overnight in DMEM and 1× Pen/Strep without FBS. The medium was changed, and cells were treated with sKL at 2 μg/ml or vehicle (sKL elution buffer: 25 mM Tris ph 8.0, 500 mM NaCl) for 15 minutes. Cells were then treated with various FGFs at 1.1 nM for 10 minutes. Cells were lysed in 200 μl of RIPA with the addition of a protease inhibitor (11836153001, Roche) and phosphatase inhibitors (P5726 and P0044, Sigma-Aldrich) for 30 minutes. The mixture was then centrifuged at 20,000 g for 60 minutes to remove all cell debris. One hundred microliters of 1× Laemmli sample buffer (1610737, Bio-Rad) with 1.42 M 2-mercaptoethanol was added, and samples were boiled for 5 minutes. Twenty microliters of samples was loaded onto 12% SDS-PAGE gels and analyzed using Western blotting for total and phosphorylated ERK.
Background: In western blotting, separated proteins are transferred to a membrane and probed.

B1: BKL: full-length β-klotho in total lysates of stably transfected HEK293T cells (protein)
chain: MKTGCAAGSPGNEWIFFSSDERNTRSRKTMSNRALQRSAVLSAFVLLRAVTGFSGDGKAIWDKKQYVSPVNPSQLFLYDTFPKNFSWGVGTGAFQVEGSWKTDGRGPSIWDRYVYSHLRGVNGTDRSTDSYIFLEKDLLALDFLGVSFYQFSISWPRLFPNGTVAAVNAQGLRYYRALLDSLVLRNIEPIVTLYHWDLPLTLQEEYGGWKNATMIDLFNDYATYCFQTFGDRVKYWITIHNPYLVAWHGFGTGMHAPGEKGNLTAVYTVGHNLIKAHSKVWHNYDKNFRPHQKGWLSITLGSHWIEPNRTDNMEDVINCQHSMSSVLGWFANPIHGDGDYPEFMKTGAMIPEFSEAEKEEVRGTADFFAFSFGPNNFRPSNTVVKMGQNVSLNLRQVLNWIKLEYDDPQILISENGWFTDSYIKTEDTTAIYMMKNFLNQVLQAIKFDEIRVFGYTAWTLLDGFEWQDAYTTRRGLFYVDFNSEQKERKPKSSAHYYKQIIQDNGFPLKESTPDMKGRFPCDFSWGVTESVLKPEFTVSSPQFTDPHLYVWNVTGNRLLYRVEGVRLKTRPSQCTDYVSIKKRVEMLAKMKVTHYQFALDWTSILPTGNLSKVNRQVLRYYRCVVSEGLKLGVFPMVTLYHPTHSHLGLPLPLLSSGGWLNMNTAKAFQDYAELCFRELGDLVKLWITINEPNRLSDMYNRTSNDTYRAAHNLMIAHAQVWHLYDRQYRPVQHGAVSLSLHCDWAEPANPFVDSHWKAAERFLQFEIAWFADPLFKTGDYPSVMKEYIASKNQRGLSSSVLPRFTAKESRLVKGTVDFYALNHFTTRFVIHKQLNTNRSVADRDVQFLQDITRLSSPSRLAVTPWGVRKLLAWIRRNYRDRDIYITANGIDDLALEDDQIRKYYLEKYVQEALKAYLIDKVKIKGYYAFKLTEEKSKPRFGFFTSDFRAKSSVQFYSKLISSSGLPAENRSPACGQPAEDTDCTICSFLVEKKPLIFFGCCFISTLAVLLSITVFHHQKRRKFQKARNLQNIPLKKGHSRVFS
modifications: left off: small tags and cut ends
notes: full-length β-klotho in total lysates of stably transfected HEK293T cells
B1: the “binding in the sKL detection assay, total cell lysates” value (“binding in the sKL detection assay” for short) with FGF23 and FGFR1c is “no measurable binding activity”.

B2: KL: full-length klotho in total lysates of stably transfected HEK293T cells (protein, UniProt Q9UEF7 1-1012, looked up)
chain: MPASAPPRRPRPPPPSLSLLLVLLGLGGRRLRAEPGDGAQTWARFSRPPAPEAAGLFQGTFPDGFLWAVGSAAYQTEGGWQQHGKGASIWDTFTHHPLAPPGDSRNASLPLGAPSPLQPATGDVASDSYNNVFRDTEALRELGVTHYRFSISWARVLPNGSAGVPNREGLRYYRRLLERLRELGVQPVVTLYHWDLPQRLQDAYGGWANRALADHFRDYAELCFRHFGGQVKYWITIDNPYVVAWHGYATGRLAPGIRGSPRLGYLVAHNLLLAHAKVWHLYNTSFRPTQGGQVSIALSSHWINPRRMTDHSIKECQKSLDFVLGWFAKPVFIDGDYPESMKNNLSSILPDFTESEKKFIKGTADFFALCFGPTLSFQLLDPHMKFRQLESPNLRQLLSWIDLEFNHPQIFIVENGWFVSGTTKRDDAKYMYYLKKFIMETLKAIKLDGVDVIGYTAWSLMDGFEWHRGYSIRRGLFYVDFLSQDKMLLPKSSALFYQKLIEKNGFPPLPENQPLEGTFPCDFAWGVVDNYIQVDTTLSQFTDLNVYLWDVHHSKRLIKVDGVVTKKRKSYCVDFAAIQPQIALLQEMHVTHFRFSLDWALILPLGNQSQVNHTILQYYRCMASELVRVNITPVVALWQPMAPNQGLPRLLARQGAWENPYTALAFAEYARLCFQELGHHVKLWITMNEPYTRNMTYSAGHNLLKAHALAWHVYNEKFRHAQNGKISIALQADWIEPACPFSQKDKEVAERVLEFDIGWLAEPIFGSGDYPWVMRDWLNQRNNFLLPYFTEDEKKLIQGTFDFLALSHYTTILVDSEKEDPIKYNDYLEVQEMTDITWLNSPSQVAVVPWGLRKVLNWLKFKYGDLPMYIISNGIDDGLHAEDDQLRVYYMQNYINEALKAHILDGINLCGYFAYSFNDRTAPRFGLYRYAADQFEPKASMKHYRKIIDSNGFPGPETLERFCPEEFTVCTECSFFHTRKSLLAFIAFLFFASIISLSLIFYYSKKGRRSYK
modifications: full-length
notes: full-length klotho in total lysates of stably transfected HEK293T cells
B2: the “binding in the sKL detection assay” value was “much weaker binding” with FGF23 and FGFR1c; “negative” with FGF23 and FGFR1c (listed as full-length klotho).

B3: FGF5: recombinant human FGF5 from R&D Systems (protein)
chain: EKRLAPKGQPGPAATDRNPRGSSSRQSSSSAMSSSSASSSPAASLGSQGSGLEQSSFQWSPSGRRTGSLYCRVGIGFHLQIYPDGKVNGSHEANMLSVLEIFAVSQGIVGIRGVFSNKFLAMSKKGKLHASAKFTDDCKFRERFQENSYNTYASAIHRTEKTGREWYVALNKRGKAKRGCSPRVKPQHISTHFLPRFKQSEQPELSFTVTVPEKKKPPSPIKPKIPLSAPRKNTNSVKYRLKFRFG
For B3, in experiment [1], the “ERK phosphorylation induced by FGF” value is given as “induced ERK phosphorylation”.

B4: FGF8b: recombinant human FGF8b from R&D Systems (protein)
chain: QVTVQSSPNFTQHVREQSLVTDQLSRRLIRTYQLYSRTSGKHVQVLANKRINAMAEDGDPFAKLIVETDTFGSRVRVRGAETGLYICMNKKGKLIAKSNGKGKDCVFTEIVLENNYTALQNAKYEGWYMAFTRKGRPRKGSKTRQHQREVHFMKRLPRGHHTTEQSLRFEFLNYPPFTRSLRGSQRTWAPEPR
In the case of B4, in experiment [1], the “ERK phosphorylation induced by FGF” value is given as “induced ERK phosphorylation”.

B5: sBKL: soluble β-klotho in total lysates of stably transfected HEK293T cells (protein)
chain: MKTGCAAGSPGNEWIFFSSDERNTRSRKTMSNRALQRSAVLSAFVLLRAVTGFSGDGKAIWDKKQYVSPVNPSQLFLYDTFPKNFSWGVGTGAFQVEGSWKTDGRGPSIWDRYVYSHLRGVNGTDRSTDSYIFLEKDLLALDFLGVSFYQFSISWPRLFPNGTVAAVNAQGLRYYRALLDSLVLRNIEPIVTLYHWDLPLTLQEEYGGWKNATMIDLFNDYATYCFQTFGDRVKYWITIHNPYLVAWHGFGTGMHAPGEKGNLTAVYTVGHNLIKAHSKVWHNYDKNFRPHQKGWLSITLGSHWIEPNRTDNMEDVINCQHSMSSVLGWFANPIHGDGDYPEFMKTGAMIPEFSEAEKEEVRGTADFFAFSFGPNNFRPSNTVVKMGQNVSLNLRQVLNWIKLEYDDPQILISENGWFTDSYIKTEDTTAIYMMKNFLNQVLQAIKFDEIRVFGYTAWTLLDGFEWQDAYTTRRGLFYVDFNSEQKERKPKSSAHYYKQIIQDNGFPLKESTPDMKGRFPCDFSWGVTESVLKPEFTVSSPQFTDPHLYVWNVTGNRLLYRVEGVRLKTRPSQCTDYVSIKKRVEMLAKMKVTHYQFALDWTSILPTGNLSKVNRQVLRYYRCVVSEGLKLGVFPMVTLYHPTHSHLGLPLPLLSSGGWLNMNTAKAFQDYAELCFRELGDLVKLWITINEPNRLSDMYNRTSNDTYRAAHNLMIAHAQVWHLYDRQYRPVQHGAVSLSLHCDWAEPANPFVDSHWKAAERFLQFEIAWFADPLFKTGDYPSVMKEYIASKNQRGLSSSVLPRFTAKESRLVKGTVDFYALNHFTTRFVIHKQLNTNRSVADRDVQFLQDITRLSSPSRLAVTPWGVRKLLAWIRRNYRDRDIYITANGIDDLALEDDQIRKYYLEKYVQEALKAYLIDKVKIKGYYAFKLTEEKSKPRFGFFTSDFRAKSSVQFYSKLISSSGLPAENRSPACGQPAEDTDCTICSFLVEKKP
modifications: left off: small tags and cut ends
notes: soluble β-klotho in total lysates of stably transfected HEK293T cells
On to B5, for which the “binding in the sKL detection assay” value with FGF23 and FGFR1c is “no measurable binding activity”.

The record behind these values is patent publication US20240384250A1, “FIBROBLAST GROWTH FACTOR 23 MODULATING COMPOUNDS” (THE UAB RESEARCH FOUNDATION, priority 2021, published 2024).
